Each block holds one sequence with its values, some of them ahead of it.
Assays:
[1] = target: PSMA monomer (Homo sapiens, UniProt Q04609); assay: Phage-displayed ELISA, binding to PSMA monomer; conditions: phage-displayed peptide, 1 μg/mL PSMA monomer, ELISA (FIG. 5)
Excerpt: (§1) An eight residue long peptide with the amino acid sequence […] [SEQ ID NO: 1], was previously identified as a PSMA binder from an 8-mer (X8) library. […] (also referred to as peptide 1 in the Figures) to PSMA as reported previously. In addition to […] [SEQ ID NO: 1], the inventors also examined a longer 13-mer peptide, selected from a disulfide-constrained library with the amino acid sequence […] [SEQ ID NO: 3] (also referred to as peptide 2 in the Figures).

[2] = target: homodimeric PSMA (Homo sapiens, UniProt Q04609); assay: Phage-based ELISA, binding to PSMA dimer; conditions: for binding to PSMA dimer: phage-displayed peptide, 1 μg/mL PSMA dimer, ELISA (FIG. 5); for relative binding affinity to PSMA compared with parent peptide 2: 1 μg/mL homodimeric PSMA, half of the binding time (FIG. 1A)
Chain of homodimeric PSMA (Q04609 whole entry): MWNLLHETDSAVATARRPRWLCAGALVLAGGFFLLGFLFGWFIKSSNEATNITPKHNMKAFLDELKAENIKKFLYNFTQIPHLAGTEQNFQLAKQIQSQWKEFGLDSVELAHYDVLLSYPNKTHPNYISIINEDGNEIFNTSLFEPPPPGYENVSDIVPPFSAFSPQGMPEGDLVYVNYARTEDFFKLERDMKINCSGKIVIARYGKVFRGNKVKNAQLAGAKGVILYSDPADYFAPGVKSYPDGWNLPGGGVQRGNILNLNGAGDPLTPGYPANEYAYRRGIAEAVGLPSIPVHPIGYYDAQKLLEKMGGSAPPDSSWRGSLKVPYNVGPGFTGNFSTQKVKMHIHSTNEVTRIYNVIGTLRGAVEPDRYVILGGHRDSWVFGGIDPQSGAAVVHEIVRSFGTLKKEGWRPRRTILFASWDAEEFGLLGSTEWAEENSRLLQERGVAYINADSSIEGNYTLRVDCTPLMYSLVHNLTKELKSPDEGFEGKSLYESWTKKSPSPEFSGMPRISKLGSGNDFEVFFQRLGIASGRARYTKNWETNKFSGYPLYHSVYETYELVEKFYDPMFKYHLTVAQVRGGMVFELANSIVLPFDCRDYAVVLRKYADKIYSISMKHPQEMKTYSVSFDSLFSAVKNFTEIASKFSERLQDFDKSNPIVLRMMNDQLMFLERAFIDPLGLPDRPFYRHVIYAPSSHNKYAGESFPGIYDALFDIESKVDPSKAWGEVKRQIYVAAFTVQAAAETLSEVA
Excerpt: as §1
The five peptides [SEQ ID NOs: 4-8] […] These peptides were assayed for binding to 1 μg/mL of homodimeric PSMA, a concentration 10-fold less than the parent peptide required for binding assays. This higher stringency can better distinguish very high from moderate affinity binders. […] FIG. 1A illustrated peptides selected from homolog shotgun scanning library. FIG. 1B illustrates relative affinity of selected peptide 3 [SEQ ID NO: 4] versus the previous highest affinity peptide 1 [SEQ ID NO: 2]. FIG. 1C illustrates a bar graph showing that 20 nM phage displaying peptide 1 [SEQ ID NO: 2] has binding affinity similar to that of 0.2 nM phage displaying peptide 3 [SEQ ID NO: 4], and 20 nM phage displaying parent peptide 2 [SEQ ID NO: 3] has binding affinity similar to 0.02 nM phage displaying peptide 3 [SEQ ID NO: 4].
A phage-based ELISA was performed using purified peptide 10 to determine whether the peptide enhances the binding to immobilized PSMA. […] Here, the graph illustrates results for the phage displaying peptide 3 [SEQ ID NO.4], wrapped with peptide 10 binding 1 μg/mL PSMA dimer

[3] = target: transferrin receptor (TfR) (Homo sapiens, UniProt P02786); assay: Cross-reactivity for binding transferrin receptor; conditions: homolog of PSMA (54% sequence identical)
Chain of transferrin receptor (TfR) (P02786 whole entry, species assumed): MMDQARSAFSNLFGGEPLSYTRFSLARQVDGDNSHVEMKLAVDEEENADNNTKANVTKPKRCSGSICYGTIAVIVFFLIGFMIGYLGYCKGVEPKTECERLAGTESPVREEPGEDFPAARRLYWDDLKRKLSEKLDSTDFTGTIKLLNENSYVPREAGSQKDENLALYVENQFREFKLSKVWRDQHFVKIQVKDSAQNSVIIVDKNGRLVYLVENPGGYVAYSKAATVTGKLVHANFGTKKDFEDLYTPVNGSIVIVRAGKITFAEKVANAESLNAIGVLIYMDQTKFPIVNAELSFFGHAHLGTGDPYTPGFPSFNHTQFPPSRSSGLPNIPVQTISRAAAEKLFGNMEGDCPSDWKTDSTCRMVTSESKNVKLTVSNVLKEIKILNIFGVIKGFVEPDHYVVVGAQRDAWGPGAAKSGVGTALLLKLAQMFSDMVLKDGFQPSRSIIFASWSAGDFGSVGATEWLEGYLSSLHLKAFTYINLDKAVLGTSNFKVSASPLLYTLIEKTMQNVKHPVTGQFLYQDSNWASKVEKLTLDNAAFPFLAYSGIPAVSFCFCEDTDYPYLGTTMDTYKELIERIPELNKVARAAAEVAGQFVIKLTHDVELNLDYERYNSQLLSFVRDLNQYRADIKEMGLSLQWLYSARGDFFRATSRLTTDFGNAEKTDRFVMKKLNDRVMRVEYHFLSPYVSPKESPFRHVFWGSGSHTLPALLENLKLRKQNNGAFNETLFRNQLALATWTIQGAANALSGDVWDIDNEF
Excerpt: It should be noted that the two substitutions incorporated in the sequence of peptide 3 [SEQ ID NO: 4] were L1S and D2E. The serine substitution removes a hydrophobic leucine residue, which provides the peptide with a more polar side chain, which can accept and donate hydrogen bonds (H-bonds). The hydroxyl group likely improves the surface complementarity at the binding interface with PSMA by creating new H-bonding contacts with the protein backbone, or by participating in an extended H-bonding network directly or indirectly through water to other side chains at the binding site. The selection of Glu in place of Asp merely extends the side chain length by one carbon unit. This substitution maintains contribution of the carboxylate functionality, and the length extension of 1.5 Å could allow for new H-bonding or salt-bridging opportunities. Clearly, the core sequence of the selected peptides is critical for the molecular recognition of PSMA, and this core remained conserved in the tightest binding peptides.

[4] = target: PSMA (Homo sapiens, UniProt Q04609); conditions: phage-displayed ELISAs, QCM, EIS; as reported previously; cited from earlier work
Chain of PSMA (Q04609 whole entry): as the sequence (Q04609 whole entry) above

[5] = phage-based ELISA with 20 nM phage, phage concentration versus HRP activity (FIGS. 1B, 1C)

Chain of PSMA monomer (Q04609 whole entry): as above

binding to PSMA dimer [2]: only binds to dimeric PSMA
Sequence: LDCVEVFQNSCDW [peptide 2, 13-mer peptide selected from a disulfide-constrained library; parent of the homolog library]
binding to PSMA monomer [1]: fails to bind the monomer with significant affinity
binding to PSMA monomer ([1]; listed as Peptide 2): does not bind PSMA monomer with appreciable affinity

cross-reactivity for binding transferrin receptor (TfR) [3]: no detectable cross-reactivity
relative binding affinity to PSMA compared with parent peptide 2 [2]: higher affinity towards the target
phage concentration with binding affinity similar to 20 nM phage displaying parent peptide 2 ([2]; PSMA 1 μg/mL (FIG. 1C)): 0.02 nM
phage concentration with binding affinity similar to 20 nM phage displaying peptide 1 ([2]; PSMA 1 μg/mL (FIG. 1C)): 0.2 nM
fold higher affinity for PSMA compared to parent peptide 2 [2, 5]: ≈ 1000 times
fold higher affinity for PSMA than peptide 1 [2, 5]: ≈ 100 times
Sequence: SECVEVFQNSCDW [peptide 3, peptide from the homolog shotgun scanning library]

relative binding affinity to PSMA compared with parent peptide 2 [2]: higher affinity towards the target
Sequence: SDCVEVFQNSCDW [compound 4, peptide from the homolog shotgun scanning library]

Sequence: CALCEFLG (Synthetic oligopeptiide) [peptide 1, reference compound]
binding to PSMA monomer [1]: efficient binding
binding to PSMA [4]: strong binding
apparent affinity for dimeric PSMA relative to the monomeric isoform ([2]; phage-displayed ELISA, dimer versus monomer): exceeds affinity for the monomeric isoform
binding to PSMA dimer [2]: efficient binding
binding to PSMA dimer ([2]; listed as Peptide 1): higher affinity to PSMA dimer than peptide 2

Reference: patent publication US8986655B2, “Compositions, devices, and methods related to prostate-specific membrane antigen” (The Regents of the University of California, priority 2009, dated 2015)
